Data taken from article PMC7808953 (Redox Biology, 2020).

Target: the molecule itself
Test: native gel or EMSA

B1: hypochlorite-treated α2-macroglobulin (natural protein)
chain: SVSGKPQYMVLVPSLLHTETTEKGCVLLSYLNETVTVSASLESVRGNRSLFTDLEAENDVLHCVAFAVPKSSSNEEVMFLTVQVKGPTQEFKKRTTVMVKNEDSLVFVQTDKSIYKPGQTVKFRVVSMDENFHPLNELIPLVYIQDPKGNRIAQWQSFQLEGGLKQFSFPLSSEPFQGSYKVVVQKKSGGRTEHPFTVEEFVLPKFEVQVTVPKIITILEEEMNVSVCGLYTYGKPVPGHVTVSICRKYSDASDCHGEDSQAFCEKFSGQLNSHGCFYQQVKTKVFQLKRKEYEMKLHTEAQIQEEGTVVELTGRQSSEITRTITKLSFVKVDSHFRQGIPFFGQVRLVDGKGVPIPNKVIFIRGNEANYYSNATTDEHGLVQFSINTTNVMGTSLTVRVNYKDRSPCYGYQWVSEEHEEAHHTAYLVFSPSKSFVHLEPMSHELPCGHTQTVQAHYILNGGTLLGLKKLSFYYLIMAKGGIVRTGTHGLLVKQEDMKGHFSISIPVKSDIAPVARLLIYAVLPTGDVIGDSAKYDVENCLANKVDLSFSPSQSLPASHAHLRVTAAPQSVCALRAVDQSVLLMKPDAELSASSVYNLLPEKDLTGFPGPLNDQDNEDCINRHNVYINGITYTPVSSTNEKDMYSFLEDMGLKAFTNSKIRKPKMCPQLQQYEMHGPEGLRVGFYESDVMGRGHARLVHVEEPHTETVRKYFPETWIWDLVVVNSAGVAEVGVTVPDTITEWKAGAFCLSEDAGLGISSTASLRAFQPFFVELTMPYSVIRGEAFTLKATVLNYLPKCIRVSVQLEASPAFLAVPVEKEQAPHCICANGRQTVSWAVTPKSLGNVNFTVSAEALESQELCGTEVPSVPEHGRKDTVIKPLLVEPEGLEKETTFNSLLCPSGGEVSEELSLKLPPNVVEESARASVSVLGDILGSAMQNTQNLLQMPYGCGEQNMVLFAPNIYVLDYLNETQQLTPEIKSKAIGYLNTGYQRQLNYKHYDGSYSTFGERYGRNQGNTWLTAFVLKTFAQARAYIFIDEAHITQALIWLSQRQKDNGCFRSSGSLLNNAIKGGVEDEVTLSAYITIALLEIPLTVTHPVVRNALFCLESAWKTAQEGDHGSHVYTKALLAYAFALAGNQDKRKEVLKSLNEEAVKKDNSVHWERPQKPKAPVGHFYEPQAPSAEVEMTSYVLLAYLTAQPAPTSEDLTSATNIVKWITKQQNAQGGFSSTQDTVVALHALSKYGAATFTRTGKAAQVTIQSSGTFSSKFQVDNNNRLLLQQVSLPELPGEYSMKVTGEGCVYLQTSLKYNILPEKEEFPFALGVQTLPQTCDEPKAHTSFQISLSVSYTGSRSASNMAIVDVKMVSGFIPLKPTVKMLERSNHVSRTEVSSNHVLIYLDKVSNQTLSLFFTVLQDVPVRDLKPAIVKVYDYYETDEFAIAEYNAPCSKDLGNA
modifications: modified by hypochlorite (NaOCl); residues not given
stoichiometry N: 2
